From the supplement of paper PMC10567573

B1: NFE2L1 (parent)
chain: TLDGYGIHPKSIDLDNYFTARRLL

Variants of: B1
Test: protein stability index of a GFP-peptide fusion (GPS, HEK-293T) (PSI 1-6); higher = more stable
Conditions: c terminus: a fixed tail appended
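Also: lentivirally expressed fusions sorted by FACS into six bins by GFP to DsRed ratio, PSI derived from sequencing read proportions per bin multiplied by bin number.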

Protein stability index: each site, then its substitutions
I7: H 2.85, N 2.1, Y 1.9, C 2.4, K 1.75, R 2.04, L 1.7, E 2.27, G 1.92, F 1.62, S 1.91, T 1.78, D 2.4, P 2.12, W 1.67, Q 2.35, V 1.68, M 1.75, A 2.01
L2: C 2.75, A 1.58, F 1.97, M 2.04, I 2.61, S 1.7, Q 1.66, W 2.37, E 2.05, Y 1.74, T 2.23, K 2.19, G 1.86, R 1.92, V 1.74, P 2.68, N 2.06, D 2.15, H 1.92
P9: S 1.71, V 1.5, I 2.39, Q 2.08, H 2.14, Y 1.68, C 1.62, T 1.95, R 2.22, K 2.24, N 2.66, D 1.88, F 1.55, L 2.7, E 1.97, G 1.91, W 2.16, M 2.05, A 1.68
Y17: W 1.5, N 2.59, C 1.71, A 1.88, K 2.57, T 2.24, Q 2.92, P 3.23, H 2.56, R 2.58, E 3.09, F 3.17, I 2.25, G 2.32, V 2.21, S 2.55, D 2.64, L 2.06, M 2.36
K10: C 2.54, F 1.87, Q 2.12, M 1.88, A 1.79, W 2.24, D 2.37, I 1.94, L 2.01, T 1.94, H 2.2, N 2.44, V 1.5, G 1.93, E 1.65, P 1.73, R 2.11, Y 1.39, S 2.22
D3: G 1.65, V 1.62, M 2.07, W 1.47, Y 2.25, P 1.62, S 1.71, F 3.12, A 2.61, T 1.61, C 1.77, H 1.25, E 2.14, R 2.33, N 2.33, I 2.06, Q 1.79, K 2.34, L 2.58
S11: W 1.67, F 2.29, V 2.49, Q 1.89, R 1.97, Y 1.67, P 2.04, H 1.89, L 2, E 2.28, T 1.97, K 2.58, C 1.98, A 1.49, D 2.38, I 1.4, N 2.19, M 1.57, G 1.91
T1: V 1.55, W 3.41, Y 2.32
H8: N 1.78, W 1.66, E 2.42, T 2.05, C 1.87, I 1.98, L 1.67, P 1.94, Q 1.79, M 1.82, V 2.28, S 1.81, F 1.95, D 2.02, R 1.55, K 2.07, G 1.75, Y 1.72, A 2.22
D15: F 2.6, Y 1.46, N 2.2, M 1.84, H 1.89, G 2.3, P 2.06, I 2.47, C 1.48, L 1.57, Q 1.84, E 1.96, R 2.74, A 1.9, S 2.44, K 1.72, T 1.77, V 1.72, W 2.21
D13: V 1.76, S 1.83, P 2.26, W 2.21, A 1.84, L 1.73, G 2.25, T 2.11, H 1.64, I 2.77, Y 1.46, N 2.1, E 2.45, R 1.91, C 2, Q 2.01, F 1.48, K 1.72, M 1.64
N16: R 1.82, Y 2.19, I 3.1, S 2.6, W 1.96, P 1.98, C 2.51, D 2.03, G 1.21, E 2.19, T 1.76, H 1.9, Q 1.8, V 2.24, F 2.63, K 1.39, A 1.72, M 1.87
T19: I 2.03, G 1.89, K 2.46, E 2.09, A 2.01, H 2.32, C 1.69, D 2.07, F 1.71
I12: D 3.05, P 3.06, W 2.05, R 1.93, L 1.66, C 2.18, Q 2.33, K 1.85, F 2.02, A 1.89, N 1.93, V 1.85, H 2.24, G 2.43, M 1.75, Y 1.99, T 1.99, S 1.87, E 2.99
Y5: F 1.89, H 2.12, I 2.21, P 2.13, R 1.76, T 2.13, G 2.43, C 2.01, L 2.3, E 2.21, N 2.25, A 2.67, Q 1.48, V 2.42, K 1.85, W 1.97, M 2.5, D 2.8, S 2.05
G6: V 2.25, E 2.02, W 1.54, P 1.76, Y 1.71, K 1.91, Q 1.94, D 1.54, N 2.21, S 1.62, L 1.59, F 2.69, T 1.83, H 1.97, A 2.26, I 1.58, M 1.83, C 1.48, R 1.87
L14: F 1.82, V 1.71, W 1.95, H 2.01, Y 2.25, T 2.55, R 2.1, N 2.17, I 2.12, A 2.2, P 2.31, S 2.62, D 2.71, Q 2.21, G 2.31, C 2.39, M 2.02, E 3.11, K 2.49
G4: C 1.43, M 2.09, L 1.27, T 1.55, I 1.65, K 1.53, Y 1.5, S 2.13, Q 1.75, R 1.95, W 1.91, H 1.62, N 2.03, A 1.73, D 2.57, E 1.47, P 1.63, F 1.46, V 1.22
F18: Q 2.69, N 3, T 2.25, S 2.16, Y 1.99, W 1.7, E 2.71, P 2.89, K 2.88, G 2.67, C 2.03, D 3.26, A 2.93, I 1.92, V 3.05, H 2.34, M 2.08, R 2.31, L 1.89
